The values below come from patent CN108997499A (BEIJING CHEST HOSPITAL CAPITAL MEDICAL UNIV; BEIJING …, dated 2018).

The target in this assay is T1, PD-L1-his蛋白 (人PD-L1胞外区, his标签) (human, UniProt Q9NZQ7 19-238).
T1 construct: extracellular domain; also called PD-L1蛋白; PD-L1-his蛋白标准品; not shown: his tag
The assay can be described thus: sandwich ELISA, PD-L1 antibody as capture, biotinylated antibody X as detection, HRP-Streptavidin. A general note: ELISA stands for enzyme-linked immunosorbent assay.

T1 sequence (Q9NZQ7 19-238): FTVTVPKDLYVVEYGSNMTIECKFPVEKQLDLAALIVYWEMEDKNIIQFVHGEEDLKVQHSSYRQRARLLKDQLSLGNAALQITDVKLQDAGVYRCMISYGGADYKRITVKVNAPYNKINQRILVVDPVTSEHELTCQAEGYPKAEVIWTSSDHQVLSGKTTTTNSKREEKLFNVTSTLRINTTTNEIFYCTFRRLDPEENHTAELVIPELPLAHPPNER

B1: 抗体X (非封阻型抗PD-L1抗体) (antibody, V domains shown)
VH: QVQLQQSGTELMKPGASVKISCKATGYTFSNYWIEWVKQRPGHGLEWIGEILPGSGNTNYNENFKGKATFTADTSSNTAYMQLSRLTSEDSAVYYCARERASTSWGQGTLVTVSA
VL: DIQMTQTTSSLSASLGDRVTITCSASQGISNYLNWYQQNPDGTVKLLIYYTSHLHSGVSSRFSGSGSGTDYSLTISNLEPEDIATYYCQQYVKLPWTFGGGTKLEIK
notes: Used biotin-labelled as the detection antibody; also called PD-L1抗体X; 第二抗体
With B1, the binding result is given as “binds”.
